Assay results taken from patent US20250243290A1.
Several values for one entry are separate records, joined by “and”; a condition that tells them apart may be missing. Identical values can stand only once. Like-named read-outs stand apart in the source and are kept apart here.

Assays:
Experiment in all cases: peptide-array ELISA [Con't]
…2TSTSPTRC = biological target: …2TSTSPTRC
[1] = biological target: LSCGSR2…
CTSSTDI2RPHQI2…2TSTSPTRC = biological target: CTSSTDI2RPHQI2…2TSTSPTRC
[2] = biological target: WVPE2…
S2…2RPGW = biological target: S2…2RPGW
NRI2…2RL = biological target: NRI2…2RL
[3] = biological target: …2…
Chain of …2… (peptide, as listed by the source): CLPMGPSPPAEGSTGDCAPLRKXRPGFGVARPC

…2SK2SPGQ = biological target: …2SK2SPGQ
[4] = biological target: C22SK2…2CAV2…
[5] = biological target: CNASMDAV2…2…
…2R = biological target: …2R
Chain of …2R (peptide, as listed by the source): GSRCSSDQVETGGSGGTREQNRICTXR

[6] = biological target: 2…
2LSCGSR2…2T2 = biological target: 2LSCGSR2…2T2
…2N = biological target: …2N
Chain of …2N (peptide, as listed by the source): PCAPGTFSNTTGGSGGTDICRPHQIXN

…2LS2…2TSTSPTRC = biological target: …2LS2…2TSTSPTRC
CG2RL2APLRK2…22SK2C = biological target: CG2RL2APLRK2…22SK2C
2…2TREQNRIC = biological target: 2…2TREQNRIC
2TREQNRI2…2RL = biological target: 2TREQNRI2…2RL
[7] = biological target: KQEGCRL2…2…
CQA2TREQNRI2T2…2RLC = biological target: CQA2TREQNRI2T2…2RLC
[8] = biological target: C2LS2GSR2…2…
V2…2NV = biological target: V2…2NV
E2LS2…2…2 = biological target: E2LS2…2…2
CDVV2KP2…2TSTSPTRC = biological target: CDVV2KP2…2TSTSPTRC
CQTAQM22SK2…2RLC = biological target: CQTAQM22SK2…2RLC
[9] = biological target: 2LS2…2…
[10] = biological target: E2LSCGSR2…
[11] = biological target: CQTAQM22SK2SPGQHCQA2TREQNRI2T2RPC
[12] = biological target: PE2LSCGSR2…
[13] = biological target: C22SK2…2CNASMDAV2TSTSPTRC
CGSR2…2 = biological target: CGSR2…2
[14] = biological target: C22SK2…2CAPLRK2…
2LS2…2R = biological target: 2LS2…2R
LS2…2…2 = biological target: LS2…2…2
KQEG2…2APGTFSN = biological target: KQEG2…2APGTFSN
[15] = biological target: QEGCRL2…
Chain of QEGCRL2… (peptide, as listed by the source): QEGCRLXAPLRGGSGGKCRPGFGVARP

[16] = biological target: DI2…
…2TREQNRIC = biological target: …2TREQNRIC
Chain of …2TREQNRIC (peptide, as listed by the source): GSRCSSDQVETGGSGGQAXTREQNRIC

2LSCGSR2…2T = biological target: 2LSCGSR2…2T
CQTAQM22SK2…2TSTSPTRC = biological target: CQTAQM22SK2…2TSTSPTRC
[17] = biological target: …22SK2CAPLRK2…
CNWVPE2LS2GSR2…2TSTSPTRC = biological target: CNWVPE2LS2GSR2…2TSTSPTRC
[18] = biological target: S2…2…
[19] = biological target: …2RLCAPLRK2…
QEG2…2APGTFSN = biological target: QEG2…2APGTFSN
[20] = biological target: CTSSTDI2RPHQI2NVCQA2TREQNRI2T2RPC
[21] = biological target: STDI2…
Chain of STDI2… (peptide, as listed by the source): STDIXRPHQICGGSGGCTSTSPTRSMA

2LS2…2…2 = biological target: 2LS2…2…2
[22] = biological target: 2LSCGSR2…
[23] = biological target: DI2…; remark: listed apart in the source
[24] = biological target: C2T2RPGWY2…2…
…2LS2GCLSKQEG2RL2APLRKC = biological target: …2LS2GCLSKQEG2RL2APLRKC

Chain of LSCGSR2… (peptide, as listed by the source): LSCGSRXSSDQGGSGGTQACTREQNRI
Chain of …2TSTSPTRC (peptide, as listed by the source): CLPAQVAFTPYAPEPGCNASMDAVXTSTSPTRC

Which Raw luminescence data (…2TSTSPTRC) does the source give for agonistic TNFR2 antibody MR2-1 here?
The Raw luminescence data was 172.

And the Raw luminescence data [1]?
Its Raw luminescence data is 181.

And the Raw luminescence data (CTSSTDI2RPHQI2…2TSTSPTRC)?
Its Raw luminescence data is 181.

What about the Raw luminescence data [2] of the same substance?
The Raw luminescence data was 186 and 181.

And the Raw luminescence data (S2…2RPGW)?
The Raw luminescence data was 177.

What about the Raw luminescence data (NRI2…2RL) of the same substance?
The Raw luminescence data was 184.

And the Raw luminescence data [3]?
The Raw luminescence data was 180.

What about the Raw luminescence data (…2SK2SPGQ) of the same substance?
Its Raw luminescence data is 181 and 173.

And the Raw luminescence data [4]?
Its Raw luminescence data is 181.

What about the Raw luminescence data [5] of the same substance?
The Raw luminescence data was 173.

And the Raw luminescence data (…2R)?
Its Raw luminescence data is 180.

What about the Raw luminescence data [6] of the same substance?
Its Raw luminescence data is 179.

What about the Raw luminescence data (2LSCGSR2…2T2) of the same substance?
The Raw luminescence data was 179.

And the Raw luminescence data (…2N)?
Its Raw luminescence data is 175.

And the Raw luminescence data (…2LS2…2TSTSPTRC)?
Its Raw luminescence data is 188.

And the Raw luminescence data (CG2RL2APLRK2…22SK2C)?
The Raw luminescence data was 183.

And the Raw luminescence data (2…2TREQNRIC)?
Its Raw luminescence data is 184.

And the Raw luminescence data (2TREQNRI2…2RL)?
Its Raw luminescence data is 186.

What about the Raw luminescence data [7] of the same substance?
Its Raw luminescence data is 191.

What about the Raw luminescence data (CQA2TREQNRI2T2…2RLC) of the same substance?
The Raw luminescence data was 178.

What about the Raw luminescence data [8] of the same substance?
The Raw luminescence data was 187.

What about the Raw luminescence data (V2…2NV) of the same substance?
Its Raw luminescence data is 177.

What about the Raw luminescence data (E2LS2…2…2) of the same substance?
The Raw luminescence data was 181.

What about the Raw luminescence data (CDVV2KP2…2TSTSPTRC) of the same substance?
The Raw luminescence data was 191.

And the Raw luminescence data (CQTAQM22SK2…2RLC)?
The Raw luminescence data was 179.

What about the Raw luminescence data [9] of the same substance?
Its Raw luminescence data is 190.

And the Raw luminescence data [10]?
Its Raw luminescence data is 189.

What about the Raw luminescence data [11] of the same substance?
The Raw luminescence data was 176.

And the Raw luminescence data [12]?
The Raw luminescence data was 180.

What about the Raw luminescence data [13] of the same substance?
The Raw luminescence data was 181.

And the Raw luminescence data (CGSR2…2)?
Its Raw luminescence data is 172.

And the Raw luminescence data [14]?
Its Raw luminescence data is 191.

And the Raw luminescence data (2LS2…2R)?
The Raw luminescence data was 181.

What about the Raw luminescence data (LS2…2…2) of the same substance?
Its Raw luminescence data is 187.

And the Raw luminescence data (KQEG2…2APGTFSN)?
Its Raw luminescence data is 180.

And the Raw luminescence data [15]?
Its Raw luminescence data is 173.

What about the Raw luminescence data [16] of the same substance?
Its Raw luminescence data is 174.

What about the Raw luminescence data (…2TREQNRIC) of the same substance?
The Raw luminescence data was 176.

What about the Raw luminescence data (2LSCGSR2…2T) of the same substance?
Its Raw luminescence data is 176.

And the Raw luminescence data (CQTAQM22SK2…2TSTSPTRC)?
Its Raw luminescence data is 164.

What about the Raw luminescence data [17] of the same substance?
Its Raw luminescence data is 168.

What about the Raw luminescence data (CNWVPE2LS2GSR2…2TSTSPTRC) of the same substance?
Its Raw luminescence data is 161.

And the Raw luminescence data [18]?
Its Raw luminescence data is 171.

What about the Raw luminescence data [19] of the same substance?
The Raw luminescence data was 165.

What about the Raw luminescence data (QEG2…2APGTFSN) of the same substance?
The Raw luminescence data was 167.

What about the Raw luminescence data [20] of the same substance?
Its Raw luminescence data is 166.

And the Raw luminescence data [21]?
Its Raw luminescence data is 159.

What about the Raw luminescence data (2LS2…2…2) of the same substance?
Its Raw luminescence data is 167.

What about the Raw luminescence data [22] of the same substance?
The Raw luminescence data was 157.

What about the Raw luminescence data [23] of the same substance?
The Raw luminescence data was 166.

And the Raw luminescence data [24]?
The Raw luminescence data was 161.

What about the Raw luminescence data (…2LS2GCLSKQEG2RL2APLRKC) of the same substance?
Its Raw luminescence data is 164.
